According to US20220363763A1 (ABL BIO, published 2022):
Where a chain is given by its changes, count along the chain named. Values belong to the binder of their own block, whether it stands above or below them.

Assays:
human LAG3 on cells [1] = molecular target: T1, human LAG3 on cells (human, UniProt P18627 23-525); assay: flow cytometry (MFI) on Jurkat-LAG3 cells, upper panel; EC50 table has no unit, x axis Concentration (nM); Table 31 of the text prints the rounded 0.4
T1 construct: whole, on cells; also called Jurkat-LAG3
T1 sequence (looked up): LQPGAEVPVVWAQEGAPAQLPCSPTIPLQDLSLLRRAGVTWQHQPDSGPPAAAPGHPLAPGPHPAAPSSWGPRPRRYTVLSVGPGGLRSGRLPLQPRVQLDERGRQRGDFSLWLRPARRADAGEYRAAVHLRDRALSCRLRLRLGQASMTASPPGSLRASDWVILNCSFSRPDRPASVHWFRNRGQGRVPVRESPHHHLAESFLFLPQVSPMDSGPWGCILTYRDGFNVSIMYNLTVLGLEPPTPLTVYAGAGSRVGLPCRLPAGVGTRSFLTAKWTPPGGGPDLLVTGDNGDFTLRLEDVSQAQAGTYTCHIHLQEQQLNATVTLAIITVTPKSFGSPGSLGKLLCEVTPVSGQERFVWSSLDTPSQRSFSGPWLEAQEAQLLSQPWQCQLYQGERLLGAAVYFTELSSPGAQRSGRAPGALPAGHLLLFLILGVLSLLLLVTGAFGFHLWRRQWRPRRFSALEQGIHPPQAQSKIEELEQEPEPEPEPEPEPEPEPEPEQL
Method: (§1) To further confirm affinity matured anti-LAG-3 antibodies could bind to cell-derived human LAG3, both inducible hLAG3 expressed Jurkat cells and activated PBMCs were used to test the binding capability of B3807b and B3810. In brief, Jurkat cells were resuspended in FACS buffer. Anti-LAG3 antibodies and isotype control were 4-fold serially diluted in FACS buffer with a dose ranging from 20 nM to 30 pM. The serially diluted antibodies were added to the cell suspension and incubated for 30 minutes on ice. Then after removal of unbound antibodies, cells were stained with anti-human IgG conjugated with Alexa Fluor 633 (Thermo, A21091). Fluorescence measurement was acquired on FACSCelesta flow cytometer and analyzed in Flowjo to determine the mean fluorescence intensities (MFI). To test anti-LAG3 antibodies' ability of binding to native human LAG3, PBMCs from health donor were stimulated with anti-CD3 (BD, 555336) and anti-CD28 (BD, 555725) both at a concentration of 1 ug/ml. Following 3 days' stimulation, cells were harvested and incubated with anti-LAG3 antibodies for 30 mins on ice. The cells were stained with anti-human CD4 and anti-human IgG. Analysis of antibodies binding to CD4+ cells were carried out on FACSCelesta flow cytometry. […] FIG. 31 is a graph showing the binding curve of anti-LAG3 antibodies.

[2] = molecular target: T2, recombinant his-tag human LAG3-ECD protein (human, UniProt P18627 23-450); assay: SPR Biacore T200, capture method as Example 2.7
T2 construct: extracellular domain; not shown: his tag
T2 sequence (looked up): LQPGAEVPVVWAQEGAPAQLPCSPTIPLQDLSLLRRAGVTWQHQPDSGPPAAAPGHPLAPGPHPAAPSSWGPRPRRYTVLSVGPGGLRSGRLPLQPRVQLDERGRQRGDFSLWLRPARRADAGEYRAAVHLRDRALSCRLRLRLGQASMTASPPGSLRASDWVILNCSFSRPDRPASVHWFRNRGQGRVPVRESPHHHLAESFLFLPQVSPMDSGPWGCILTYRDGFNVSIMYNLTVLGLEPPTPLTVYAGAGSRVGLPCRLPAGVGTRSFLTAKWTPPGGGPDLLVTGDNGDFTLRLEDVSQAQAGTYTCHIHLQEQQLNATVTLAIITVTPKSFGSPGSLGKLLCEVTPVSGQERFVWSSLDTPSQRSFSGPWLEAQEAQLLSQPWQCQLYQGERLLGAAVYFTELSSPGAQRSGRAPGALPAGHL

human LAG3 on cells [3] = molecular target: T1, human LAG3 on cells; assay: flow cytometry on hLAG3-expressing Jurkat cells
Method: as §1

[4] = molecular target: T2, recombinant his-tag human LAG3-ECD …; assay: Biacore, antibody captured, His-tag human LAG3-ECD injected (procedure of Example 2.16(B)); column ka (1/Ms)
Method: (§2) The binding of B3807 to recombinant His-tag human LAG3-ECD protein was examined by Biacore T200 using a capture method. B3807 was captured using protein A which was immobilized on CM5 sensor chip. Serial concentrations of his-tag human LAG3-ECD protein (0-12 nM) were injected over capture antibodies at the flow rate of 30 μl/min. The dissociation phase was 900 s or 550 s.
(§3) B3807 was used in the following examples for further testing and preparing bispecific antibodies.

[5] = molecular target: T2, recombinant his-tag human LAG3-ECD …; assay: Biacore, antibody captured, His-tag human LAG3-ECD injected (procedure of Example 2.16(B))
Method: as §2, §3

[6] = molecular target: T3, recombinant human LAG-3-ECD-human IgG1 fusion protein (human, UniProt P18627 23-450, biotin-labeled in the MHC class II blocking assays); assay: ELISA as Example 2.2, coated human LAG3 ECD-Fc
T3 construct: extracellular domain; also called LAG-3-huFc; LAG-3-ECD-huFc; not shown: human IgG1 Fc
T3 sequence (looked up): T2 sequence (looked up)
Method: To evaluate the capability of the anti-LAG-3 antibodies to bind to human, rat, and mouse LAG3 the antibodies identified in Example 2.1 were evaluated for their binding property through ELISA. The human, rat and mouse LAG3 ECD-Fc protein were coated to ELISA plate at 1 μg/ml with 100 μl/well. Antibodies from Example 1 were serially diluted with ELISA diluent buffer. […] The resulting plates were washed and then labeled with anti-human IgG(Fab)-HRP antibody. The S31 can only bind to human LAG3. The S27 and T99 can bind to human LAG3 and rat/mouse LAG3 with lower potency. The S119 antibody can bind to human, rat and mouse LAG3 at high potency (FIGS. 22A-22D).

human LAG3 on cells [7] = molecular target: T1, human LAG3 on cells; assay: flow cytometry on activated CD4 T cells
Method: as §1

[8] = molecular target: T2, recombinant his-tag human LAG3-ECD …; assay: Biacore, antibody captured, His-tag human LAG3-ECD injected (procedure of Example 2.16(B)); column kd(1/s)
Method: as §2, §3

human LAG3 on cells [9] = molecular target: T1, human LAG3 on cells; assay: flow cytometry (MFI) on activated CD4 T cells, lower panel; EC50 table has no unit, x axis Concentration (nM); Table 31 of the text prints the rounded 0.33
Method: as §1

human LAG3 on cells [10] = molecular target: T1, human LAG3 on cells; assay: flow cytometry (MFI) on Jurkat-LAG3 cells, upper panel; EC50 table has no unit, x axis Concentration (nM); Table 31 of the text prints the rounded 0.5
Method: as §1

human LAG3 on cells [11] = molecular target: T1, human LAG3 on cells; assay: flow cytometry (MFI) on activated CD4 T cells, lower panel; EC50 table has no unit, x axis Concentration (nM); Table 31 of the text prints the rounded 0.39
Method: as §1

[12] = molecular target: T4, human PD-L1 (construct not stated) (human, UniProt Q9NZQ7 19-239, limits assumed); assay: SPR Biacore, affinity ranking
T4 construct: also called B7-H1 (PD-L1); PD-L1 protein

[13] = molecular target: T5, human PD-L1 expressed on mammalian cells (human, UniProt Q9NZQ7 19-290); assay: cell-based binding on Raji-PDL1 cells (FACS by paragraph 328; the y axis of the sheet is labelled IL2 (ng/ml)); EC50 table has no unit, x axis Concentration (nM)
T5 construct: whole, on cells; also called PDL1-CHOK1 cells; PDL1-Raji cells
Method: To evaluate the antigen binding property, the antibodies were analyzed for its binding to mammalian expressed PD-L1 by FACS. Briefly, PDL1-Raji cells were firstly incubated with 5-fold serious diluted humanized antibodies starting at 2 µg/ml at RT for 1 hour. After wash by FACS buffer (PBS with 2% FBS), the Alexa 488-anti-human IgG antibody was added to each well and incubated at RT for 1 hour. The MFI of Alexa 488 was evaluated by FACSAriaIII.

human PD-L1-Fc protein = molecular target: T6, human PD-L1-Fc protein (human, UniProt Q9NZQ7 19-239); assay: ELISA on coated human PD-L1-Fc
T6 construct: Coated on ELISA plates; also called huPD-L1; not shown: Fc part
Method: To evaluate the antigen binding activity, the antibodies were subjected to ELISA test. Briefly, microtiter plates were coated with human PD-L1-Fc protein at 2 μg/ml in PBS, 100 μl/well at 4° C. overnight, then blocked with 100 μl/well of 5% BSA. 4-fold dilutions of humanized antibodies starting from 10 μg/ml were added to each well and incubated for 1-2 hours at RT. The plates were washed with PBS/Tween and then incubate with […] antibody conjugated with Horse Radish Peroxidase (HRP) for 1 hour at RT. After washing, the plates were developed with TMB substrate and analyzed by spectrophotometer at OD 450-630 nm.

[14] = molecular target: T7, human LAG3-His protein (Sinobio, 16498-H08H) (human, UniProt P18627 23-450); assay: ELISA on coated human LAG3-His, panel LAG3
T7 construct: also called human LAG3 protein; not shown: His tag
T7 sequence (looked up): T2 sequence (looked up)
Summary of the method: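 Bispecific antibodies were tested by ELISA on plates coated overnight at 4° C with human LAG3-His protein at 0.5 μg/ml in PBS (100 μl/well), then blocked with 5% BSA. Four-fold antibody dilutions starting from 100 nM were incubated for 1-2 hours at RT. EC50 was read off the binding curve.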

T4 sequence (Q9NZQ7 19-239 limits assumed): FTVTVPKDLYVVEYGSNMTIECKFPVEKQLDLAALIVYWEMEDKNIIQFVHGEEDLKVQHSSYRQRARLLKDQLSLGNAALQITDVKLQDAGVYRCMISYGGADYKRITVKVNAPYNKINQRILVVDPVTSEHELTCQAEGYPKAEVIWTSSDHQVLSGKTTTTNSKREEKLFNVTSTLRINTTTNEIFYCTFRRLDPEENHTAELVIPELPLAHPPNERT
T5 sequence (Q9NZQ7 19-290): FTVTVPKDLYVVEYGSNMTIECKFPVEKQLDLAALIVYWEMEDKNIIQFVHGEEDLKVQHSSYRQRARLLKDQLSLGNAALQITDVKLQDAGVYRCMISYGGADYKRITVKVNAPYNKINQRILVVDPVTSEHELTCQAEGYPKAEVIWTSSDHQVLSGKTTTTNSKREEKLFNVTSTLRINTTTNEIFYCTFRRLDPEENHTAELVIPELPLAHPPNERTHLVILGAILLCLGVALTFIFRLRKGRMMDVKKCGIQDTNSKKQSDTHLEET
T6 sequence (Q9NZQ7 19-239 limits assumed): as the sequence (Q9NZQ7 19-239 limits assumed) above

B3: B6 (antibody, V domains shown)
VH: EVQLVESGGGLVQPGGSLRLSCAASGFTFSSYDMSWVRQAPGKSLEWVATISDAGGYIYYRDSVKGRFTISRDNAKNSLYLQMNSLRDEDTAVYICARELPWRYALDYWGQGTTVTVSS
VL: DIQMTQSPSSLSASVGDRVTITCKASQDVTPAVAWYQQKPGKAPKLLIYSTSSRYTGVPSRFSGSGSGTDFTFTISSLQPEDIATYYCQQHYTTPLTFGQGTKLEIK
notes: also called B6 monoclonal antibody
Kd [12]: 1.02 nM
koff [12]: 0.000246 s⁻¹
kon [12]: 242000 M⁻¹ s⁻¹
EC50 [13]: 1.2 nM
EC50 (read off the curve) (human PD-L1-Fc protein): ~0.2 µg/mL

B4: 147(H3807)xH12 (bispecific antibody, human IgG4 S228P, kappa)
heavy: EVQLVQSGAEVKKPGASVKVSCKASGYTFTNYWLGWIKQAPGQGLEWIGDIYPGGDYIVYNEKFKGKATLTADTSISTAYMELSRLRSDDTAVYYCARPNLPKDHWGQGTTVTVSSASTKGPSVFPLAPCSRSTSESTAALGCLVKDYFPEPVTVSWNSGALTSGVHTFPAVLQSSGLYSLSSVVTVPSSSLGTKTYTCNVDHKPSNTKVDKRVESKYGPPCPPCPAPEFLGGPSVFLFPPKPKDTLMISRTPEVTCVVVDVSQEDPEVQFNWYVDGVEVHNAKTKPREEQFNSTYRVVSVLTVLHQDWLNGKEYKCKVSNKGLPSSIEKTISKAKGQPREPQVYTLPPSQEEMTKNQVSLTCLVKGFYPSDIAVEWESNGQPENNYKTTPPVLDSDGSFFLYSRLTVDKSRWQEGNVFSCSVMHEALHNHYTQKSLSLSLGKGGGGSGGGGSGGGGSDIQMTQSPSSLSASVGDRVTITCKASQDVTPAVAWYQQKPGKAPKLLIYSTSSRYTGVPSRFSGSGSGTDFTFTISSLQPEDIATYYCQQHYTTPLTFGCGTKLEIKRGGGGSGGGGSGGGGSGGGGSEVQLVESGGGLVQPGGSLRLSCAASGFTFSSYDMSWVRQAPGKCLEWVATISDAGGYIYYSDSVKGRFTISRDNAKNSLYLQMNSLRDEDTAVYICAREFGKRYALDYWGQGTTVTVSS
light: DIVMTQSPLSLPVTPGEPASISCRSSKSLLHSQGITYLYWYLQKPGQSPQLLIYQVSNLASGVPDRFSGSGSGTDFTLKISRVEAEDVGVYYCAQYLELPWTFGGGTKVEIKRTVAAPSVFIFPPSDEQLKSGTASVVCLLNNFYPREAKVQWKVDNALQSGNSQESVTEQDSKDSTYSLSSTLTLSKADYEKHKVYACEVTHQGLSSPVTKSFNRGEC
EC50 (read off the curve) [14]: ~0.4 nM

More lines, now with the values ahead:

EC50 (human LAG3 on cells [1]): 0.39 nM
Kd [2]: 0.51 nM
koff [2]: 0.002 s⁻¹
kon [2]: 4e+06 M⁻¹ s⁻¹
EC50 (human LAG3 on cells [3]): 0.4 nM
kon [4]: 3.46e+06 M⁻¹ s⁻¹
Kd [5]: 0.968 nM
EC50 [6]: 0.41 nM
EC50 (human LAG3 on cells [7]): 0.33 nM
koff [8]: 0.00334 s⁻¹
EC50 (human LAG3 on cells [9]): 0.333 nM
B1: 147H 3807b (antibody, V domains shown)
VH: EVQLVQSGAEVKKPGASVKVSCKASGYTFTNYWLGWIKQAPGQGLEWIGDIYPGGDYIVYNEKFKGKATLTADTSISTAYMELSRLRSDDTAVYYCARPNLPKDHWGQGTTVTVSS
VL: DIVMTQSPLSLPVTPGEPASISCRSSKSLLHSNAITYLYWYLQKPGQSPQLLIYQVSNLASGVPDRFSGSGSGTDFTLKISRVEAEDVGVYYCAQYLELPWTFGGGTKVEIK
notes: also called B3807b

Kd [2]: 0.41 nM
koff [2]: 0.0019 s⁻¹
kon [2]: 4.7e+06 M⁻¹ s⁻¹
EC50 (human LAG3 on cells [3]): 0.5 nM
EC50 [6]: 0.49 nM
EC50 (human LAG3 on cells [10]): 0.492 nM
EC50 (human LAG3 on cells [7]): 0.39 nM
EC50 (human LAG3 on cells [11]): 0.391 nM
B2: 147H 3810 (antibody, V domains shown)
VH: B1 VH with T28L
VL: B1 VL with S61T
notes: also called B3810
